Assay [1] addresses human CCR8 (human) (UniProt P51685). Briefly: flow cytometry on TALL-1 cells (endogenous CCR8).
Assay [2] has the same target. Briefly: FACS on HEK293-human CCR8 cells.
Assay [3] shares this target. The assay can be described thus: FACS on HEK293-human CCR8 cells. This is another data set of the same source.
Assay [4] shares this target. Briefly: FACS on HEK293-human CCR8 cells. This is another data set of the same source.
Assay [5] shares this target. Briefly: FACS on CHO-K1-human CCR8 cells.
The target of the next assay is T1, human CCR1 (human) (UniProt P32246).
T1 sequence (looked up): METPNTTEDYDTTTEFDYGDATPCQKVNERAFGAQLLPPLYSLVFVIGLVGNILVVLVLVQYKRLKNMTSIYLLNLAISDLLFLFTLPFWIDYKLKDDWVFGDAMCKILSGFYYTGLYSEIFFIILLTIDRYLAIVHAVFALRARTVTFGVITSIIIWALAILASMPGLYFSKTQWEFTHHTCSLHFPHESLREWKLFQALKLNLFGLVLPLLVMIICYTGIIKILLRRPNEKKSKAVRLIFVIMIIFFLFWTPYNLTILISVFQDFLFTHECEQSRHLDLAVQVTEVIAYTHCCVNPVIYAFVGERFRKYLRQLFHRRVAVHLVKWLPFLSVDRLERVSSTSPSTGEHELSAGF
Briefly: FACS on ExpiCHO-S-human CCR1 cells.

The next assay has as its target T2, human CCR4 (human) (UniProt P51679).
T2 sequence (looked up): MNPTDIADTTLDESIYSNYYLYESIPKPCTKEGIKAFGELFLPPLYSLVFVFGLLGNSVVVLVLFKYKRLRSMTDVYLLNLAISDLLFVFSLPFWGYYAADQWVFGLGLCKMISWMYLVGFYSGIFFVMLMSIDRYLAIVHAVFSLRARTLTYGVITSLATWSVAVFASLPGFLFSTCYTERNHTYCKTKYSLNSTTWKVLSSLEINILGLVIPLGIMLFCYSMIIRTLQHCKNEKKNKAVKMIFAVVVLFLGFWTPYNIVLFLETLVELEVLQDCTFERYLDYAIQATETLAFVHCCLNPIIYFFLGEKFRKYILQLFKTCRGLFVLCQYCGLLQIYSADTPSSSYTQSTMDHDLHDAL
Briefly: FACS on ExpiCHO-S-human CCR4 cells.

Assay [6] addresses cynomolgus CCR8 (cynomolgus) (UniProt G7NYJ2). Briefly: FACS on HEK293-cynomolgus CCR8 cells.
Assay [7] shares this target. The assay can be described thus: FACS on HEK293-cynomolgus CCR8 cells. This is another data set of the same source.
The target is the same in assay [8]. Briefly: FACS on HEK293-cynomolgus CCR8 cells. This is another data set of the same source.
Assay [9] shares this target. Briefly: FACS on HEK293-cynomolgus CCR8 cells. The source holds these as a separate data set.
For assay [10] the target is unchanged. The assay can be described thus: FACS on ExpiCHO-S-cynomolgus CCR8 cells.
The target of assay [11] is human CCR8 (human) (UniProt P51685). The assay can be described thus: FACS on HuT78 cells (endogenous human CCR8).
Assay [12] has the same target. Briefly: FACS on HuT78 cells (endogenous human CCR8). This is another data set of the same source.
For assay [13] the target is unchanged. Briefly: FACS, competition with CCL1 on CHO-K1-human CCR8 cells.
Assay [14] has the same target. The description is as above. This is another data set of the same source.
For assay [15] the target is unchanged. The assay can be described thus: FACS, competition with AF647-human CCL1 on CHO-K1-human CCR8 cells.
Assay [16] shares this target. The assay is described as above. The source holds these as a separate data set.
Assay [17] has the same target. Described as above. This is another data set of the same source.
For assay [18] the target is unchanged. Briefly: FACS on HEK293-human CCR8 cells. The source holds these as a separate data set.
For assay [19] the target is unchanged. Briefly: FACS, competition with AF647-human CCL1 on CHO-K1-human CCR8 cells. This is another data set of the same source.
Assay [20] has as its target cynomolgus CCR8 (cynomolgus) (UniProt G7NYJ2). The assay can be described thus: FACS on HEK293-Cynomolgus CCR8 cells.

cynomolgus CCR8 (cynomolgus), sequence (G7NYJ2 entry or part of it): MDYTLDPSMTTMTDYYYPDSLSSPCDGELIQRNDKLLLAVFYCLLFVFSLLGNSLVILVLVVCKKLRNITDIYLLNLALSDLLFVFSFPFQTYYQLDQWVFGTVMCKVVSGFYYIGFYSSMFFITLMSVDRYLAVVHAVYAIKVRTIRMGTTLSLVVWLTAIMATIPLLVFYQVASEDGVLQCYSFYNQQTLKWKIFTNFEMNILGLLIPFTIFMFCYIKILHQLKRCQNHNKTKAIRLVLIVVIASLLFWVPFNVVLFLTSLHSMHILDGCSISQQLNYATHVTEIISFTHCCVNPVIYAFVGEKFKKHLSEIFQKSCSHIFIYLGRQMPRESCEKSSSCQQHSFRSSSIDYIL
human CCR8 (human), sequence (P51685 whole entry): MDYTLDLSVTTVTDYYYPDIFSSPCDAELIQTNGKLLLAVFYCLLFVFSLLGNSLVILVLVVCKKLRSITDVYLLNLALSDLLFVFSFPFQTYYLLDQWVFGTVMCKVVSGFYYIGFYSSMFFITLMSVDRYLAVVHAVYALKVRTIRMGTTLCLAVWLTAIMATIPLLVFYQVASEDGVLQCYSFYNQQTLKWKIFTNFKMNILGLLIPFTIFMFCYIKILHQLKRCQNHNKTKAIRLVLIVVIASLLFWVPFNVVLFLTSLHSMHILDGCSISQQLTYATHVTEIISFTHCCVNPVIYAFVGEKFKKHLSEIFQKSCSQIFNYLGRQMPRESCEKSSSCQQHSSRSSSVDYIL

In the assay with human CCR8 (human) [1], HuIgG1-G1m Isotype (antibody) returned a Maximum MFI of 5.96 MFI.
As to Human IgG1 (antibody), the Max MFI is 180 MFI with human CCR8 (human) [2]; 222 MFI with human CCR8 (human) [3]; 167 MFI with human CCR8 (human) [4]; 3860 MFI with human CCR8 (human) [5]; 20.3 MFI with human CCR1 (human); 7 MFI with human CCR4 (human). Also, the Max MFI worked out at 14300 MFI in assay [6]; 331 MFI in assay [7]; 120 MFI in assay [8]; 5690 MFI in [9]; 13 MFI in assay [10]; 7820 MFI with human CCR8 (human) [11]. This substance had a Max MFI in the assay with human CCR8 (human) [12] of 16900 MFI. Also, the Max Inhibition (%) was -4.58% with human CCR8 (human) [13]; 17.8% with human CCR8 (human) [14]; -13% in the assay with human CCR8 (human) [15]; 27.4% with human CCR8 (human) [16]; -4.1% with human CCR8 (human) [17].
In the case of Mouse IgG2a (antibody), the Max MFI in the assay with human CCR8 (human) [18] turned out to be 11 MFI; with human CCR8 (human) [2], 18 MFI; in the assay with human CCR8 (human) [3], 261 MFI; in the assay with human CCR8 (human) [4], 49 MFI; in the assay with human CCR1 (human), 267 MFI; in the assay with human CCR4 (human), 6.6 MFI. For the same substance, the Max MFI turned out to be 47 MFI in assay [6], 40 MFI in [7], 158 MFI in assay [8] and 5 MFI in [10]. Also, the Max Inhibition (%) in the assay with human CCR8 (human) [19] was 12.3%; with human CCR8 (human) [15], -13.9%; in the assay with human CCR8 (human) [16] it was 28.7%; with human CCR8 (human) [17] it was 2.1%.
Mouse IgG2a isotype control (antibody): the Max MFI with human CCR8 (human) [18] was 349 MFI; in assay [20] it was 396 MFI.

For the origin of these results see patent US20250034266A1.
